Target: PTH receptor 1 on ROS 17/2.8 rat osteoblast cells (rat) (UniProt P25961)
Experiment: cell-based or functional assay

Sequence of UniProt P25961 (P25961 27-591): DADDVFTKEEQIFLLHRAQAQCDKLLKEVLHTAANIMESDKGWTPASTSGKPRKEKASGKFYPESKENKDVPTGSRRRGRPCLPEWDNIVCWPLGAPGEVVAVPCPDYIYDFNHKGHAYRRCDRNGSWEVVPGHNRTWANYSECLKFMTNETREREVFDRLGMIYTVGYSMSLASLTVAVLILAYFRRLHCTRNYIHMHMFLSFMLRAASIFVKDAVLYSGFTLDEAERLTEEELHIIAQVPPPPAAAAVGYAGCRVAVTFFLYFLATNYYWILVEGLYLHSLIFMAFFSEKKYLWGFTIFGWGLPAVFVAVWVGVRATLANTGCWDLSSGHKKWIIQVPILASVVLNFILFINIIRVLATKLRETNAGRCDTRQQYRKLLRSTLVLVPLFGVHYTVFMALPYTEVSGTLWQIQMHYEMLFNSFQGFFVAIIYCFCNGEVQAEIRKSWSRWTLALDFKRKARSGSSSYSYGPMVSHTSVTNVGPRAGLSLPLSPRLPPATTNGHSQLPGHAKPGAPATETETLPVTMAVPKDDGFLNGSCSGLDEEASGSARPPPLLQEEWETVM

PAIGB expression (fold induction): 6 fold
Substance: human PTH (1-34) (from UniProt P01270 32-65) (peptide)

Reference: patent publication US20040146906A1
